The chains are these.
T1: Myo5 SH3 (MYO5_YEAST), Q04439
T1 chain: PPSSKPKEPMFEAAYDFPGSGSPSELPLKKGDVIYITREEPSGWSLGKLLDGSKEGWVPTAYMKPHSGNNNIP

This assay concerns the target T1, Myo5 SH3 (MYO5_YEAST), Q04439. As to the kind of experiment: SPOT array.
Molecule TPTHHHIPHIPNQN [YPR065W 331-344] registered a normalised SPOT signal, Boehringer light units (BLU); mean over the file's lines of this peptide of 148.
Next, YASQYSRPDGPILL [YGR088W 39-52]: 114; YEVTFDGPNDPLHP [YLL028W 124-137]: 111.
Molecule YEKALHFPAGPKST [YFL042C 472-485] yielded a normalised SPOT signal, Boehringer light units (BLU); mean over the file's lines of this peptide of 147.
Next, TWKMHLWPVSPPQL [YLR039C 34-47]: 224; YLLELPDPLIPNDV [YFL047W 564-577]: 163.
For VLGVLNVPLPPQTR [YGL197W 857-870], the normalised SPOT signal, Boehringer light units (BLU); mean over the file's lines of this peptide was found to be 233.
Under VLKTLAFPINPSDI [YBR026C 53-66] stands 156; under VFKFLFHPVTPSHF [YJL005W 768-781], 565; under WLLPYSLPMHPGRW [YHR072W 218-231], 706.
Under VAPGLWFPNSPPPL [YPL128C 101-114] stands 4830; under VLTKMNAPQKPEDI [YCR004C 46-59], 296.
Under YEGRFWNPENPYKF [YEL011W 167-180] stands 163; under VLIKFVIPVYPSLP [YGR099W 37-50], 562; under WLSKLVLPPPPVSI [YHR021W-A 81-94], 4130.
Take VFLRLISPTRPSLE [YOR249C 40-53]: the normalised SPOT signal, Boehringer light units (BLU); mean over the file's lines of this peptide is 1640.
Next, VPLPFGIPPFPMFP [YKL059C 406-419]: 11600; VFSLMNSPAYPDVQ [YIL001W 264-277]: 153; VPPNFNAPPNPMAF [YNL118C 392-405]: 1570.
Molecule VEPEWYLPILPMIL [YNL088W 813-826] displayed a normalised SPOT signal, Boehringer light units (BLU); mean over the file's lines of this peptide of 236.
Under VFGTYLGPDAPLSK [YMR272C 367-380] stands 130.
Under VLKGFYSPSAPSYD [YOR029W 22-35] stands 290; under YFKELPPPSDPSSI [YDL108W 289-302], 165.
Next, YEQTMKSPKYPSTY [YDR314C 535-548]: 138; YLPHMSRPLGPDEV [YMR131C 97-110]: 172; VLLPLRLPEIPPKG [YFL036W 1323-1336]: 1070.
Turning to VPIIFEIPFNPIYK [YKL205W 1001-1014], the normalised SPOT signal, Boehringer light units (BLU); mean over the file's lines of this peptide stood at 215.
Next, TPYQLLSPILPVLL [YBR136W 679-692]: 287; YLNNLAEPLIPLSL [YDR389W 216-229]: 222.
Next, VPDSYKPPKNPIVF [YDR058C 17-30]: 829; VPNRWATPLDPSIL [YAL015C 71-84]: 126.
Next, VPDQLLTPLQPYTI [YJL127C 32-45]: 168.
VAKSYGFPVPPKVN [YMR290C 473-486] yielded a normalised SPOT signal, Boehringer light units (BLU); mean over the file's lines of this peptide of 259.
Next, VLEAYNVPTPPRLE [YLR410W 284-297]: 57.4.
Next, YLNSLSEPLVPLAL [YOR134W 141-154]: 132; YFKNMSNPKIPATK [YIL125W 74-87]: 128; VAGYFVIPHTPMPS [YOR378W 217-230]: 180.
Under VEVIMHSPSDPEYA [YML117W 995-1008] stands 150; under VPSAFTAPPVPTKK [YDR517W 312-325], 358.
In the case of VPGGMSIPGAPQGA [YPL169C 514-527], the normalised SPOT signal, Boehringer light units (BLU); mean over the file's lines of this peptide was 140.
For the molecule TPTPHPHPHTPHPH [YHR217C 42-55], the normalised SPOT signal, Boehringer light units (BLU); mean over the file's lines of this peptide came out at 158.
On to TPSNMGSPGSPVNV [YOL148C 21-34], for which the normalised SPOT signal, Boehringer light units (BLU); mean over the file's lines of this peptide is 156.
Next, YEADYVIPVLPGSH [YNL262W 2031-2044]: 125; YENSHSLPLDPQSP [YLR416C 105-118]: 122; VLSKFIKPKNPSLV [YPL226W 187-200]: 320.
Take VELHFPKPEDPASI [YMR246W 254-267]: the normalised SPOT signal, Boehringer light units (BLU); mean over the file's lines of this peptide was found to be 14.9.
Under VPGEHFAPMGPNGQ [YHR098C 250-263] stands 64.7; under VAWSHDSPKPPSDR [YHR163W 199-212], 30.6.
Molecule VFSSLRDPVIPIKL [YGL195W 2560-2573] showed a normalised SPOT signal, Boehringer light units (BLU); mean over the file's lines of this peptide of 132.
Under VARPLSVPGSPRDL [YLR258W 646-659] stands 186; under VLFNLDHPMVPENL [YAL018C 292-305], 220.
Under VLKNLPTPGEPFNF [YML131W 8-21] stands 148; under VPAILMTPISPRSL [YPL188W 282-295], 138.
Next, VAVPFTLPVIPYDL [YBR223C 517-530]: 240.
